Results reported in publication PMC7307210.

Biological target: SAR1A (human) (UniProt Q9NR31)
Assay: liposome flotation assay; SAR1 and SEC31A-af incubated with 100-nm synthetic liposomes and GMP-PNP, 30 min at 37 °C, floated through a sucrose gradient in HKM buffer (pH 6.8); SDS-PAGE and SYPRO-Ruby staining; SEC31-af signal normalized to SAR1

With “GTPase-activating fragment of SEC31A (from UniProt O94979 1-1220) (domain or fragment)” the fold recruitment relative to SAR1B was 2 fold.
